# Literature values in article PMC11087986.
# Like-named read-outs stand apart in the source and are kept apart here.
# Columns and labels:
# [1] = biological target: RBM39 RRM1-RRM2 (Homo sapiens) (UniProt Q14498)
# [2] = biological target: RBM39 RRM1-RRM2 (Homo sapiens) (UniProt Q14498); remark: listed apart in the source
# [3] = biological target: RBM39 RRM1-RRM2 (Homo sapiens) (UniProt Q14498); remark: listed apart in the source
# UniProt Q14498, sequence (Q14498 153-328): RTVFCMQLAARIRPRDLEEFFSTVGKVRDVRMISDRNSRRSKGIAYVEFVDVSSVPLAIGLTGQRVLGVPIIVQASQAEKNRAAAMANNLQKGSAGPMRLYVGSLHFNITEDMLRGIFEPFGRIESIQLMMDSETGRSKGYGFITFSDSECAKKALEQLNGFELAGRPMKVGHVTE
substance,measurement,setting,value
DCAF15 (from UniProt Q66K64),Kd,[1],4.6 µM
same,Kd,[2],160 nM
same,Kd,[3],120 nM
